Laboratory results from US20170253645A1 (published 2017).
Values joined by “and” are separate entries in the source; they are usually repeats but may differ in a detail not shown here. Identical values can stand only once.

Tests used:
HMGB1 = biological target: T1, HMGB1 (UniProt P09429 1-215, limits assumed, biotinylated in the RAGE assay (sites not given)); test: Octet BLI
T1 construct: also called biotinylated HMGB1
T1 sequence (looked up): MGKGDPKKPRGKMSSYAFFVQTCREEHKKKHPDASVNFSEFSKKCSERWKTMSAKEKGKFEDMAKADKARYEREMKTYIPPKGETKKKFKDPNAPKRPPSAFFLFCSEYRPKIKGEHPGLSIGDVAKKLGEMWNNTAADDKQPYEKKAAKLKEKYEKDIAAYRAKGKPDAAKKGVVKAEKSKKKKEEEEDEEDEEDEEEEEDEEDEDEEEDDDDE
Source text: We measured association and disassociation rates using the Octet (FIG. 26C).

TNF-α [1] = biological target: T2, TNF-α (UniProt P01375 77-233, biotinylated (sites not given)); test: Octet BLI, biotinylated TNF-α on streptavidin tips, A6+Fc at 370 nM
T2 construct: Bought protein; also called biotintylated TNF-α soluble protein
T2 sequence (P01375 77-233 limits assumed): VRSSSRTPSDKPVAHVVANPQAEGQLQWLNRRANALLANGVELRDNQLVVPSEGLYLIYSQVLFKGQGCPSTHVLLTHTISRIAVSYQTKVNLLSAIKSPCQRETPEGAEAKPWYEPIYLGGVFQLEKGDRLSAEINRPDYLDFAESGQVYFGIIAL
Description: (§1) The target protein was biotintylated TNF-α soluble protein (R&D Systems) and is at a concentration of 0.25 ug/ml for loading onto the streptavidin sensor tips. […] The Octet was run using the manufacturers protocol for Basic Kinetic Assay.

TNF-α [2] = biological target: T2, TNF-α; test: Octet BLI, biotinylated TNF-α on streptavidin tips, A6 at 290 nM
Description: as §1

B1: P2F3 anti-HMGB1 (designed binder)
chain: NVSPPRRARVTDATETTITIRWGVPHSFQVDAVPANGQTPIQRTIKRGVRSYTITGLQPGTDYKIYLYTLNDNARSSPVVIDAST
notes: soluble 6xHis-tagged protein in Octet; not shown: C-terminal tags from the phagemid incl; 6xHis (soluble form)
Kd (HMGB1): 277 nM | kon (HMGB1): 97900 M⁻¹ s⁻¹

B2: R41A6 Fc fusion protein (A6+Fc) (Fc fusion)
chain: NVSPPRRARVTDATETTITISWEHSEDDCYSYIYYFQVDAVPANGQTPIQRTISGYETYYTITGLQPGTDYKIYLYTLNSAGFCPPYSKPVVIDAST
notes: Expressed in E. coli BL-21(DE3) from pET-20b with pelB signal; it calls A6 alone monomeric; also called pET-20b+TNF A6+Fc #39; 14FN3-Fc fusion; not shown: C-terminal hexahistidine tag of pET-20b
Kd (TNF-α [1]): 24.8 nM and 14.9 nM and 11.7 nM | koff (TNF-α [1]): 0.000226 s⁻¹ and 0.00022 s⁻¹ and 0.000229 s⁻¹ | kon (TNF-α [1]): 9120 M⁻¹ s⁻¹ and 14900 M⁻¹ s⁻¹ and 19500 M⁻¹ s⁻¹

B3: TNF-α binder R41A6 (designed binder)
chain: B2 chain
notes: 14FN3 scaffold variant from the tyrosine WTM library; Octet); The NcoI primer adds ATGGAA before the NVSPP start in the pET-20b construct; also called TNF A6; not shown: C-terminal hexahistidine tag from pET-20b (Octet), or c-myc + 6xHis tags from the phagemid (soluble ELISA)
koff (TNF-α [2]): 0.000438 s⁻¹ and 0.000267 s⁻¹
